Changes are numbered by the printed parent chain.
B1: Ab No. 21a (antibody, V domains shown)
VH: QVQLVQSGAEVKKPGSSVKVSCKASGGTFNAYAISWVRQAPGQGLEWMGGIIPISGTAAYAQKFQGRVTITADESTSTAYMELSSLRSEDTAVYYCTRDLGFGAIRDTWGQGTLVTVSS
VL: EIVLTQSPATLSLSPGERATLSCRASQSVSSYLAWFQQKPGQAPRLLIYDASNRATGIPARFSGSGSGTDFTLTISSLEPEDFAVYYCQQSLNLPITFGGGTKVEIK
notes: derived from Ab No. 21 by modifying VH CDRs, VL unchanged; IgG format
B2: Ab No. 21b (antibody, V domains shown)
VH: B1 VH with A59N
VL: B1 VL
notes: as for B1
B3: Ab No. 21c (antibody, V domains shown)
VH: B1 VH with N30S, A31G, G56A, A59N
VL: B1 VL
notes: as for B1
B4: Ab No. 21f (antibody, V domains shown)
VH: B1 VH with N30G, A31G, G56A, A59F
VL: B1 VL
notes: as for B1
B5: Ab No. 21d (antibody, V domains shown)
VH: B1 VH with N30S, A31T, A59N
VL: B1 VL
notes: as for B1
B6: Ab No. 21e (antibody, V domains shown)
VH: B1 VH with N30D, A31N, A59I
VL: B1 VL
notes: as for B1
B7: Ab No. 28a (antibody, V domains shown)
VH: EVQLLESGGGLVQPGGSLRLSCAASGFTFGSYAMHWVRQAPGKGLEWVSAISGSGQSTDYADSVKGRFTISRDNSKNTLYLQMNSLRAEDTAVYYCVRGYRLVGILTGSHFDYWGQGTLVTVSS
VL: DIQMTQSPSTLSASVGDRVTITCRASQSIGSWLAWYQQKPGKAPKLLIYKASSLESGVPSRFSGSGSGTEFTLTISSLQPDDFATYYCQQYNILPPTFGGGTKVEIK
notes: derived from Ab No. 28 by modifying VH CDRs, VL unchanged; IgG format
B8: Ab No. 28f (antibody, V domains shown)
VH: B7 VH with G30S, S31T, A33G, H35N, Q56L, S57N, D59Y
VL: B7 VL
notes: as for B7
B9: Ab No. 28d (antibody, V domains shown)
VH: B7 VH with G30D, S31A, H35S, Q56V, S57R, D59Y
VL: B7 VL
notes: as for B7
B10: Ab No. 28b (antibody, V domains shown)
VH: B7 VH with G30S, S31K, A33Q, H35S, S54T, Q56E
VL: B7 VL
notes: as for B7
B11: Ab No. 28e (antibody, V domains shown)
VH: B7 VH with S31R, H35S, S54D, G55A, Q56G, D59F
VL: B7 VL
notes: as for B7
B12: Ab No. 28c (antibody, V domains shown)
VH: B7 VH with T28P, G30S, S31A, A33G, H35S, Q56G, S57N
VL: B7 VL
notes: as for B7
B13: Ab No. 61 (antibody, V domains shown)
VH: EVQLLESGGGLVQPGGSLRLSCAASGFTFDHYAMSWVRQAPGKGLEWVSAISASGDETYYADSVKGRFTISRDNSKNTLYLQMNSLRAEDTAVYYCARDSPHMATYKSYYYYGMDVWGQGTTVTVSS
VL: DIVMTQSPDSLAVSLGERATINCKSSQSLLNARTGKNYLAWYQQKPGQPPKLLIYWASTRESGVPDRFSGSGSGTDFTLTISSLQAEDVAVYYCKQSYSLRTFGGGTKVEIK
notes: IgG format
B14: Ab No. 60 (antibody, V domains shown)
VH: B13 VH with H31N, S54D, G55A, D56G, E57Q
VL: B13 VL
notes: IgG format; also called ADI-83102
B15: Ab No. 68 (antibody, V domains shown)
VH: EVQLVESGGGLVQPGGSLRLSCAASGFTFQSYAMNWVRQAPGKGLEWVSYISDDASTIYYADSVKGRFTISRDNAKNSLYLQMNSLRAEDTAVYYCAREVHRGWGAFDIWGQGTMVTVSS
VL: B13 VL
notes: IgG format
B16: Ab No. 83 (antibody, V domains shown)
VH: EVQLLESGGGLVQPGGSLRLSCAASGFTFSDHSMNWYRQAPGKERELVSAISGSGGSTYYADSVKGRFTISRDNSKNTLYLQMNSLRAEDTAVYYCNARRYQSSGGDVWGQGTQVTVSS
notes: HCAb format (dimer of VH-hinge-CH2-CH3, no VL, CL or CH1)
B17: Ab No. 78 (antibody, V domains shown)
VH: EVQLLESGGGLVQPGGSLRLSCAASGFTFDTYSMNWFRQAPGKERELVSAISGVGSTYYADSVKGRFTISRDNSKNTLYLQMNSLRAEDTAVYYCHARGFRLGYDFDYYWGQGTQVTVSS
notes: as for B16
B18: Ab No. 70 (antibody, V domains shown)
VH: EVQLLESGGGLVQPGGSLRLSCAASGFTFSDYAMSWVRQAPGKERELVSIISASGGTTYYAGSVKGRFTISRDNSKNTLYLQMNSLRAEDTAVYYCAAHASGSYYLDASRDYDADYWGQGTQVTVSS
notes: as for B16
B19: Ab No. 8 (antibody, V domains shown)
VH: QVQLVQSGAEVKKPGSSVKVSCKASGGTFSSYAISWVRQAPGQGLEWMGGIIPISGTANYAQKFQGRVTITADESTSTAYMELSSLRSEDTAVYYCAKTRTVAYPGSDWGQGTLVTVSS
VL: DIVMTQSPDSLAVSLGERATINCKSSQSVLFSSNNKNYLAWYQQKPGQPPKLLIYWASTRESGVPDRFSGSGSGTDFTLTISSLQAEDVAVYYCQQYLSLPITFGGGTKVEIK
notes: IgG format
B20: Ab No. 9 (antibody, V domains shown)
VH: QVQLVQSGAEVKKPGSSVKVSCKASGGTFSSYAISWVRQAPGQGLEWMGGIIPISGTANYAQKFQGRVTITADESTSTAYMELSSLRSEDTAVYYCALGRWLTEAQWGQGTLVTVSS
VL: not shown
notes: IgG format

Biological target: T1, human CD28 (human, UniProt P10747 19-152, limits assumed)
T1 construct: also called Cluster of Differentiation 28; Tp44
Experiment: affinity maturation of CD28-binding antibodies (Example 10: Discovery of Additional Antibodies that Bind to CD28)

Binding result, binds:
B1
B2
B3
B4
B5
B6
B7
B8
B9
B10
B11
B12

Biological target: T1, human CD28
Experiment: selection from yeast-presented libraries of heavy chains and CD3-binding light chains

Binding result, binds:
B13
B14
B15

Biological target: T1, human CD28
Experiment: selection from yeast-presented heavy chain-only libraries (HCAb format)

Binding result, binds:
B16
B17
B18

Biological target: T1, human CD28
Experiment: selection from yeast-presented synthetic human antibody libraries

Binding result, binds:
B19
B20

Source: patent publication EP4713368A1 (dated 2026)
